We go through three molecules from patent publication US20170226225A1 (Merck Sharp & Dohme, published 2017).

The target in test [1] is T1, rhesus monkey FXI zymogen (rhesus monkey, UniProt F6PJ95 19-624).
T1 construct: also called NHP FXI zymogen (rhesus)
The experiment in a line: SPR (ProteOn XPR36), antibody captured by anti-human IgG, FXI as analyte; mean ± SD, N=3.
Description: (§1) 1 M ethanolamine HCl is then injected across all six vertical flow channels to neutralize remaining reactive surface amines. The anti-FXI antibodies are then injected at 25 μL/minutes for 60 seconds, each into a distinct vertical flow channel coated with capture antibody (L2, L3, L4, L5, or L6), at a concentration of 5 μg/mL in 10 mM sodium acetate, pH 5.0, to achieve saturating capture levels of approximately 80 RU; vertical flow channel L1 is injected with 10 mM sodium acetate, pH 5.0 (buffer alone), as a reference control. After capture of anti-FXI antibodies, running buffer (1×HBS-N, 5 mM CaCl₂, 0.005% P20, pH 7.4) is injected across all horizontal flow channels (A1-A6) for 5 minutes and allowed to dissociate for 20 minutes at 25 μL/minutes to remove any non-specifically bound anti-FXI antibodies from the chip surface. To measure on-rate (kₐ) of human FXI to captured anti-FXI antibodies, a 6-point titration of human FXI zymogen (0, 0.25, 0.5, 1.0, 2.0, 4.0 nM diluted in running buffer) is subsequently injected horizontally across all six vertical flow channels for 8 minutes; the bound zymogen is then allowed to dissociate for 60 minutes in running buffer at 25 μL/min to measure off-rate (kd). Binding kinetics and affinity (KD) may be determined using instrument-specific software (Bio-Rad).
(§2) A GLC low-density sensor chip is washed across all vertical and horizontal flow channels with 0.5% sodium dodecyl-sulfate, 50 mM sodium hydroxide, and 100 mM hydrochloric acid for 60 seconds at 30 μL/second flow rate.

For test [2], the target named is T2, cynomolgus monkey FXI zymogen (cynomolgus monkey, UniProt A0A2K5VVW4 19-624).
T2 construct: also called NHP FXI zymogen (cynomolgus)
The test is described as above.
Description: as §1, §2

Test [3] has as its target T3, human coagulation Factor XI (FXI) zymogen (human, UniProt P03951 19-625).
T3 construct: Homodimeric zymogen; also called Human FXI; human Factor XI
Described as above.
Description: as §1, §2

For another test, the target named is human FXIa (human, UniProt P03951 19-625). As to the kind of experiment: SPR (ProteOn XPR36), antibody captured by anti-human IgG, FXIa as analyte; mean ± SD, N=3.
The next test has as its target cynomolgus monkey FXIa (cynomolgus monkey, UniProt A0A2K5VVW4 19-624). The description is as above.
For test [4], the target named is T3, human coagulation Factor XI (FXI) …. As to the kind of experiment: cell-based or functional assay.
Test [5] deals with T1, rhesus monkey FXI zymogen. The experiment in a line: cell-based or functional assay.
Test [6] has as its target T2, cynomolgus monkey FXI zymogen. The experiment in a line: cell-based or functional assay.
Test [7] has as its target T3, human coagulation Factor XI (FXI) …. The experiment in a line: cell-based or functional assay. This is another data set of the same source.

Positions count from the first letter of the chain named. Numbers in names are those of the source.

B1: αFXI-13654p-IgG4 (S228P) (K-)/kappa (antibody, V domains shown)
VH: EVQLVESGGGLVKPGGSLRLSCAASGFTFSSYSMNWVRQAPGKGLEWVSSISSSSSYIYYADSVKGRFTISRDNAKNSLYLQMNSLRAEDTAVYYCARSYYDYDQGYGMDVWGQGTTVTVSS
VL: DIQMTQSPSSVSASVGDRVTITCRASQGISSWLAWYQQKPGKAPKLLIYAASSLQSGVPSRFSGSGSGTDFTLTISSLQPEDFATYYCQQVNSYPITFGGGTKVEIKR
notes: Human IgG4 S228P heavy chain lacking the C-terminal lysine; kappa light chain
What is called Kd is the concentration at which binding is half-saturated. Regarding B1, the Kd worked out at 26.6 pM in test [1]; 12.9 pM in test [2]; 26.5 pM in [3]; 9 pM with human FXIa; 2 pM with cynomolgus monkey FXIa. The “FXIa Activation Inhibition (EC50, nM); autoactivation of FXI on dextran sulfate, Z-GPR-AFC cleavage” value (from here on “FXIa Activation Inhibition (EC50, nM)”) in test [4] turned out to be 10 nM. In test [5], the “aPTT in rhesus monkey plasma: concentration that prolongs clotting time by 50% (1.5x)” value (from here on “aPTT in rhesus monkey plasma … by 50% (1.5x)”) is 25 nM. Further, the “aPTT in cynomolgus monkey plasma: concentration that prolongs clotting time by 50% (1.5x)” value (shortened to “aPTT in cynomolgus monkey plasma … by 50% (1.5x)”) in test [6] is 21.6 nM. In addition, the “aPTT in human plasma: concentration that prolongs clotting time by 50% (1.5x)” value (“aPTT in human plasma … by 50% (1.5x)” below) in test [7] was found to be 16.8 nM.

B2: αFXI-13716-IgG4 (S228P) Q1E M103L (K-)/kappa (antibody, V domains shown)
VH: EVQLVQSGAEVKKPGASVKVSCKASGYTFTSYSMHWVRQAPGQGLEWMGIINPSGGSTSYAQKFQGRVTMTRDTSTSTVYMELSSLRSEDTAVYYCARGAYLLELYYYYGMDVWGQGTTVTVSS
VL: EIVMTQSPATLSVSPGERATLSCRASQSVSSNLAWYQQKPGQAPRLLIYGASTRATGIPARFSGSGSGTEFTLTISSLQSEDFAVYYCQQFNDWPLTFGGGTKVEIKR
notes: Human IgG4 S228P heavy chain with Q1E and M103L, lacking the C-terminal lysine; kappa light chain
As for B2, the Kd came out at 2 pM in test [1]; 6.9 pM in test [2]; 2.5 pM in [3]; 1.1 pM in the test with human FXIa; 3.3 pM with cynomolgus monkey FXIa. Further, the “FXIa Activation Inhibition (EC50, nM)” value in test [4] was 11 nM. The “aPTT in rhesus monkey plasma … by 50% (1.5x)” value in test [5] stood at 17.4 nM. The “aPTT in cynomolgus monkey plasma … by 50% (1.5x)” value in test [6] was 21.1 nM. Moreover, the “aPTT in human plasma … by 50% (1.5x)” value in [7] turned out to be 20.9 nM.

B3: αFXI-13716p-IgG4 (S228P) (K-)/kappa (antibody, V domains shown)
VH: B2 VH with E1Q, L103M
VL: B2 VL
notes: Human IgG4 S228P heavy chain lacking the C-terminal lysine; kappa light chain; also called α13716p-IgG4 (S228P) (K-)/kappa
As for B3, the Kd is 3.1 pM in test [1]; 7.5 pM in test [2]; 3.5 pM in test [3]; 1.3 pM with human FXIa; 3.7 pM with cynomolgus monkey FXIa. In test [4], the “FXIa Activation Inhibition (EC50, nM)” value is 4 nM. The “aPTT in rhesus monkey plasma … by 50% (1.5x)” value in test [5] amounted to 19.4 nM. For the same molecule, the “aPTT in cynomolgus monkey plasma … by 50% (1.5x)” value in test [6] turned out to be 22.5 nM. In addition, the “aPTT in human plasma … by 50% (1.5x)” value in [7] turned out to be 21.6 nM.
